Data reported in PMC8904574 (2022).

Key:
[1] = target: β-subunit of the F1 part of the Na+-F1FO-ATP synthase of Acetobacterium woodii, N-terminal His6 tag (Acetobacterium woodii (strain ATCC …, UniProt P50002)); experiment: LILBID-MS; tested with 2 mM ATP/2 mM MgCl2; δ binds only once the α3β3 hexameric head (α3β3γ/α3β3γε) is preformed
[2] = target: α-subunit of the F1 part of the Na+-F1FO-ATP synthase of Acetobacterium woodii, N-terminal StrepI tag (Acetobacterium woodii (strain ATCC …, UniProt P50000)); experiment: as above
α-subunit of the F1 part of the Na+-F1FO-ATP synthase of Acetobacterium woodii, N-terminal StrepI tag (Acetobacterium woodii, sequence (P50000 whole entry): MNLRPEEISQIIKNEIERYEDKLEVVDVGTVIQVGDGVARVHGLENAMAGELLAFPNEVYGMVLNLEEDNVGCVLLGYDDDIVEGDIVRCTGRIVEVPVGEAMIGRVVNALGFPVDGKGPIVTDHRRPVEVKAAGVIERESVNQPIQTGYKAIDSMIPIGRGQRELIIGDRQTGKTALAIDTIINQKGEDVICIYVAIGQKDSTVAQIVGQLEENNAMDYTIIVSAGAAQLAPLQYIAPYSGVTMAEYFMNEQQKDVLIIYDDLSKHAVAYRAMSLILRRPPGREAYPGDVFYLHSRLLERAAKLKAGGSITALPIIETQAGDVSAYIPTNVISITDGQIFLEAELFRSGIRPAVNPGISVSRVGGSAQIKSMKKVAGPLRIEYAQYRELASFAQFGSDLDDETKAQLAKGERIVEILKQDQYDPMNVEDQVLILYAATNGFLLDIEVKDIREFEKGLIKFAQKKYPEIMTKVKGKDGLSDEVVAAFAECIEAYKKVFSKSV

β-subunit of the F1 part of the Na+-F1FO-ATP synthase of Acetobacterium woodii, N-terminal His6 tag (Acetobacterium woodii, sequence (P50002 whole entry): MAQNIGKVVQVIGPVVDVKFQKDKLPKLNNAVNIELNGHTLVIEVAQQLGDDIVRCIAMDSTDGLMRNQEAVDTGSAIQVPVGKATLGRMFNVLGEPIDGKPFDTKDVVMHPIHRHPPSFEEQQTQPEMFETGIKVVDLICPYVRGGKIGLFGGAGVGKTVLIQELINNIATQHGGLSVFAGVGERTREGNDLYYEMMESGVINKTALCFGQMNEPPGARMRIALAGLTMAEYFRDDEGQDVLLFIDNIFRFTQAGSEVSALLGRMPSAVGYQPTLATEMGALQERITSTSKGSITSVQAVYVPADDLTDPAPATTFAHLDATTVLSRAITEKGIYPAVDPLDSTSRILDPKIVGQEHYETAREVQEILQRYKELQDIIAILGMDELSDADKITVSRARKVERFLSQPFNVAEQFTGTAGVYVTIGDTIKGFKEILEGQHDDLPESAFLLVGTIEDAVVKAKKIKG

binding result [1]: no binding
binding result [2]: no binding
B1: δ-subunit of the F1 part of the Na+-F1FO-ATP synthase of Acetobacterium woodii, C-terminal His6 tag (protein)
chain: MSLVASKYARALFDVAVDKDQLDEIFSDFKTATDLFSSEKKFMDLMLTPSLNTGEKKGILMRSLESLSNQYVKNYLMILMDKNRFEDIFDIYEAFRKLCNEHKNLVEARVLTVIPLDETLRIALEENLAKRFNKKVILENEIDKSILGGAVVYVGDQIIDGSIKNQLSQMKKQVNNLRLH
